The target in the experiment is beta-amyloid 42 peptide (UniProt P05067). In words: SiMoA.

The results in this text go back to publication doi:10.1101/2024.10.11.617910 (bioRxiv, 2024).

B1: Donanemab (antibody, V domains shown)
VH: QVQLVQSGAEVKKPGSSVKVSCKASGYDFTRYYINWVRQAPGQGLEWMGWINPGSGNTKYNEKFKGRVTITADESTSTAYMELSSLRSEDTAVYYCAREGITVYWGQGTTVTVSS
VL: DIVMTQTPLSLSVTPGQPASISCKSSQSLLYSRGKTYLNWLLQKPGQSPQLLIYAVSKLDSGVPDRFSGSGSGTDFTLKISRVEAEDVGVYYCVQGTHYPFTFGQGTKLEIK
Regarding B1, the binding result was “no binding”.
